Data: the NTF2 design screens of Basanta et al. (2020)

Assay: protease stability score; higher = more stable; yeast display proteolysis, trypsin and chymotrypsin;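 note: log10 excess protease needed over predicted unfolded state with 0 meaning unfolded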

Row | Sequence | protease stability score
1 | DESDVEDLAKDAINAYQTGDPDQVARMADKDVKFTVGDHEVKGRNQLREHLQTIFHNVDHFDVTDMRINGNKARIHFTANVNGQTERNVMIIVAHNGKVRKMAIHSQ | -0.566
2 | DDHEEASELIRDLNEAWKEGDPDRASKNFDPNARIEVGDRTFRGQEQVKRMADELKEKYDEFTVDIKRLSLHNGSITVNARVVYHNNGRRHDRTYVVILHKHNGRIKIKNMHEQ | 0.331
3 | DTHDVKRILDELKTNDEDMNRHLVDPNAKLRIGDKEIHGREELTEFYHRFHKQVDSQRIKDVRVHGNRFRVEFEAVFNGQTVEASYEATFHNGKATSLRYTATSNEELKNLQKVMD | 0.147
4 | DEELLELFERWVDAVHNNDKEQLKRLMDPNVKFQIGDKRWEGREKLVKDIADEQRQIRVRYRVDTMDATNGRADVHAKVEIEVNGKPISFRVRVFMEVHNGKVKSIVWNIPEDDMKKLQK | 1.63
5 | DKDLIERDKQWWTAVRHNNPDRLSENVDENASVRIGDKEVHGRKDISRLIKHLRDTMHESYKIERVNKEEGRANIQASATRDHNGRPRTARVQVIVEAHNGRIKRIQVQFNS | -0.336
6 | DEDDLRRRANEVAEVLHDNDEESMKSLVDPNADIEIGDKRLHGRDDMEKWMQERKRRVDHLTLHSFNVHNGRVDIDARVEVNGQQERYRMVVEFHNGVAKHINFTST | 0.569
7 | DEEKRREFAKFAMNVVQTGDPREFSKMADPNAKFDIGDKVFHGREKAVKHWEEYSQRVDHIQIQDVKFQGNEIHILAQDRHNGRDRSVVWVVTVHNGRAKYVSVDDN | 0.027
8 | DEESQKQMMKEMSDVWKHNDPDEAQKLADKDVKIRYGDREYHGREDFVSAMREFSKQADSITVKHMTVQGDKIVLDIIIQYDGQHREIVVIVHVHNGRIQELQIQDG | 0.637
9 | EEENVKVAQEIINIEDRGDSDQIHRLFDPNAHWTVGDQDIHGRETWLTKFRKEREEMRVRFRTLHFNAHNGRAVVRVEQEVTHNGTPTTKVYIMKVEFRNGKVKSIVFQSDG | 0.235
10 | DETAVTVLTEIVKAQRQGDHNRFNELVDPNAKIRVGDKRVTGREQLTHEFHKNLKHMRVHQKVHDMKDHNGRVQATAQRRSNHNGKPKEVEVQFQATARNGRLTQMEMHSSG | -0.643
11 | DDRQRRQFAERVQKVLRTGDPERFMQMADENVQVHVGDQTYRGRDQAEKNMREFVKRVDHLQIISFHFEGNHAVIVFIAHFDGKEATIEMVIRFSNGHIKEMKINPDQIRQMRS | 1.21
12 | DETNKEQFDRLLKHQKTGNPQEVVKNADPNVKMRIGNKTWHGRENINQDVERRRRKMRIDINVKSVDSHGEELRIDARVQYNINGKPLEDDVVIIAEVHNGKFKHIEVRIPERMQKKLER | 0.637
13 | DDQEVKKLAHEVQKILEHGDPDQFADLFDKDARMTVGDKDLHGRERIRELAQRQQDRIDHVQLEEYQVHNGRVVLKMRVNVNGHDETINMTLHQRNGKVKEFTQQSR | 0.071
14 | DEESREQQVHHMMEAIKTGDEDRARTLMDKDASLQVGDKVFQGRKEAAKAVSEIVRRVDRFRVDSVTVSGNQVDAKVQFEVNGRNMQATIRIQMHNGRIQHLVIEFRDPNQYREVKK | 1.05
15 | DEDAQKTVRKFLENITTGNPENAEKLLDPNVHIHYGDKRVSGRDQFHREAKQKLHDMRLSIDIKEVQVQGNRIDVDVRFSVNHNGRPYTITAHLSIEMSNGHIEHMELRIDESDKRRQKR | -0.237
16 | DETHDAHRKAEEIITALRTGDPKQAESLVPENVKIDVGDKTIHGKEQYSKEFKKFTDRVDKVEVRIKHVHVQGDKIKIRMEARENVDGQDKRYQFVLIFDRHNGKDQAVSIKVD | 1.02
17 | DDEEDKTLNQKAREALTDNDPDQMMNLFDKDANVDVGEKRVHGREQLRRYMQDLHRMVDHVQVDSVKVDGEKLEFKVTLQYNGRRLKVVFRINYHDGRAKNMHIEFTDEKTLKQFEK | 0.882
18 | DERVIQEIRKMFNTNNFDSIAKNADKDATASIGNKHVHGKDNVKKLLDQFSRQIDHIQIDSVHVQGEKFVAQMKVNINGRERTAEMRMEVHNGKIQRISITFTDPSAQQTIKERME | 0.942
19 | DEDAVKLFHNVQHVIEQGDKDKAVKNFDPNASAKVGDKEVHGMEDWVRTLVKEASQLRIDLKWDDYRVHGDKINMNIELNKEHNGHPSTTRMHIDAHVHNGRVKFVAYNRRP | 0.066
20 | DEHAEHIATEWWKAIRTNNPERARELVDKDVKINVGDKRIHGREQVDREIKRLNNTSRQDYKSMHMTVKGDKVRVEMNKRQEDNGNPRSKNFEVVFDFHNGRIRHISVHETK | -0.381
21 | DDRHVQKRLKTFIHILRTGDPQKISNLVDPNAEIQVGDKEYHGRHEIRKLIEELKTRVDHIDVVDMKAEGDKARANLNVNVNGHDIRFVVQLVWDNGHVKSVRIKYRNERVERQEKG | 1.61
22 | DEERSNLVESVFRALEHNDEKRLNELFDPNVNVQIGDDKIRGREELVKFMRTLKRQMRIRYRTMDLHVQGDKVVVRATFEVNVNGTPHNVTMEFHAEVHNGKFKHARIKIPEEKLKTMQS | 1.57
23 | DEHEMKKVADQIVDILRTGDQDRFRDLADPNVRVSVGDKTVHGRHQAQQQVKRLKDQVDHVQLKDMKIHGNTVVVKAHVEINGNTTDRDVKFELHNGRVSHLTIDPEAQKVMDT | 0.273
24 | DEEQRKRMAEKFRNAIQRNDDDKIRELAPPDVSARYGDKEVHGREELLKYIDRLHKEADRIDVHDLHVKGETIILTLVVNINGHNHRYNFVAHIHDGRMHRMKVESR | 1.21
25 | DENELELYKEVVEAENTGDPDEMKELVDPNVNVQVGDTTLHGMSELVKDAKRRRKQMRVDIKVTSMKAHNGRLEIRLEVVFEVNGRPTSDTITVTVHAHNGKVKEFNYHMDPDREKRQRS | 1.03

Row | Sequence | protease stability score
26 | DETAQEQAKKLFQARQTNDPDKVNNLLDENARVNIGDTSVQGREDASKEVERQHRESHQSVELKEVKVDGDHVELHYVLTKQENGKPDSNKASMNVQIHNGKAQDVQIQTSK | -0.35
27 | DEERRDLAHRIFEAWKRNDPDTLRNLIDPNAKMVVGEDVLRGDEQIVKHVQDVHNRINMKIDIKSVRVEGDKVIVHAEVTANVNGRPVRIEVTFVIKNHNGKVKKIVIDVDPRDQRKMDS | -0.13
28 | DEDDVRRVAEQIVQALEKGDEQRMMELADPNAKARVGEKDYHGREDLHKIVKELKDDFDHARVESVEVDGDKVVIHMVVKSNGKDRRMIIRFRVHNGKVTEMEFRTG | 1.75
29 | EEENQQIAEDVVDVLRTGDHEKFMHMADPNVKVVIGDKQYRGREDFSKIVKTWKDQMRLHIQIKDVKVEGDEVHVEADYLMKHNGKPVRDTITLVIRFDNGKIKEVQYEVDEDVLRKLES | 1.14
30 | DEEVAKRMAETWVKAVEKGDTDQVQKVYKPNVEWVAGDEKHQGVEVVKKMMQKVKKLGVEFQLRKRKVEGGTVEFHYDMKNGNDTVTFTVRIDAEGGRVDRVEVEFDEKAQKVVKKG | 0.183
31 | EEHQQKLIEEVLKAMDSGDEDRIKELVDPNAEFHVGDKTWHGMQDWARHVREEVEQIDFTWVNMEIRVKNGTVIMKARFEETRDGQPRTQNVNLRARVHNGRLTSMENDQHG | 0.375
32 | DEENRRNFERLIEAIRTNNPSDVEQLVDPNVRFQVGNEVYNGREQFSKDVERLNRQINITIHVRRLHVHGEKVVVDFTYQQEVNGRPNSHRVKWDATLENGKIKSARNTFDEEFEKELTK | -0.091
33 | EEEQQKVLEELFRVLQEGDEKRAIKLADPNAKFNVGDKQYNGMEEYARSVATEIRNIRVEIETMDARVQGDHVQVNIVVNYKINGQPFRMTIKVRANVHNGQVHELNMHVDEDQQRKLKT | 0.014
34 | DEDAERLINQLLTAERRGNPDQVMQQVDKNATQTVGDKHIHGREDISREVEKRKRESRVDRKVESIDIRGNQARIEVHFEEDRNGKPVTSAQTMDITFHNGVVHERKVQDDS | -0.743
35 | DEEAHEVIDTLRKAQETGDRNTARSLIDPNATFQVGDNVIRGREEYVRDLVRHRDQIRVELKHLSQTFSNGKMRMTQEAVYDINGRPDRVEFTASATIHNGRVKHMTVQVPPEQVKRLER | -0.181
36 | EDDVKRKQETWLKAVEDNNPEEAEEQADKHVQVVIGDKRIRGMEEMAHFIEHERRQADIRIQDYRISARGDKVRANISMHFNVNGTPEQASIKIQVTLSNGKIRKMVFRFDDQEFRRIQS | 1.1
37 | DEQKEAEDIINTWREVLKDNDTDKARELADKHVRVVVGDKELHGREDFVRYFHEVAHRVDHIDIDVLDLTVHNGRIHFEADAVADVNGRKDTFVIRMVWQSQGDKHNMQEMHVP | -0.09
38 | DEEDAEDVVRKVNKILRDGDWEKFVNLMDKNAHARIGDQTYSGRSAAEDIARDVHRQVDHVEIKRVEVQGNTVHIDMVVEHNGREEKRVMDLIITNGRLRMVEYQHG | -0.107
39 | DEEMEKRWEEWLDAVTTGDESRVREYMDPNVRYNYGDKHYTGREEIAHDTVREVKRIRIEIKTMSNDDQGEHVRVRFNRVKNDNGEPKEEVLVVEFTQENGRITEATQHEDR | -0.004
40 | DEDKAKEFMRKALHILLEGDPDKFVRMADKDAHIQVGEHTVHGREQVRKFIQELQDKVDHNDVVDYEVRPNHANIEFQMNVNGRTVRMRVRLEFKNGKFKRATFDPDDVRKLHT | 1.33
41 | DEKEAEHVSRLVRENDFQTLRDQADKDARVRIGDREVHGRERLRSQLHKLERRIDSLEVHRVNNHPNHFHVDVVITVNGQKVTFRLNIHVHNGRIKSIEIEFTDEDQKRNMNEVFS | -0.081
42 | DDKKRVTQVFREWREALQTGNEEELHKQADKDVKFDVGESEFHGREKFVKHVQERLTQVDHLDIKMHSLKVDNGKADVSVIYRQNHNGKEDETTAVIIMTLSNGHAKIDTVKYG | -0.195
43 | EEKQDTRLEEFVSAVLKGDEQEAVDLADPNADMHIGEWHVRGREQIRKFIDQLRKRIRVQVDEMHVDNQGENVTVRATFVLDHNGVPMEFEIEYRLVVDNGRLKSVHARVPEEVKNRRRR | 0.294
44 | DEEQVRKMLETILKMMVNGNLEEVKKVLKPNVDYQLGDEKLQGQQVAERADKYIKKVGVRAEIKRAKVEGDTAELDYEFTADGRTVRVTVQAHAKDGRLDQWRVEVSDTAKKIRQKG | 0.736
45 | DEEEVRRIAHEFLKAVERGDEKRVRQLADKDVRAVVGDKRIHGKKDLAKLVKTLRDRADQFKVRDLEVQGNHVEVDLVMIVNGQSVDMSINIVVHNGTIHHMEIRVTDEDRMREVNS | -0.053
46 | DEDREAKKNLENMQKVLEKGDPDKMSELVDEDVRFVVGDKTFQGREDVRRRMETNVKRVDHIEVQIKHYEVKNGRARADAVFRVEVNGKETTRKFDVQVKVENGRFRVEQIRYK | 0.265
47 | DDEERHKDAQKAMHLYQRGNPDEMDRLMDPNVKVRVGDETYHGREQANRAFKKIRDRVDHINVKSVSVHGNRINIVAEVNINGRNDILRVIIDYHNGRARRVIITHK | 0.204
48 | DPKRTVKVAEEAAKILYNGDSDKAKKVFKPDLRVKIADRETQGVEQIVKELEKFQKIGVERETKEKRTEGDKVQFHTVYRNGSDQAKMTVEYQAKDGKVDRIQVDYDEKAKKIQEDG | -0.407
49 | DEKQNAEKVMTDVERNLREGDDNKIKEMADKDAKADVGEKKVTGREDIAKMLATLNKSVDEVTLDLKHVTTQGDFLNVKADIKWRHNGTTRQNKVEMWVNDFNGNVVIKHLRIG | 1.08
50 | DREDESELAMRAAVNAATGNEDEVSKNADPNVRAIYGDKNYDGTENMKDVIRQVRERIDHIELKSFEQHGDHAVARAEAKHNGDESTLVVTARAENGRVKSMRFEIR | -0.275
